B1: Procathepsin L (Homo sapiens) (protein)
chain: MNPTLILAAFCLGIASATLTFDHSLEAQWTKWKAMHNRLYGMNEEGWRRAVWEKNMKMIELHNQEYREGKHSFTMAMNAFGDMTSEEFRQVMNGFQNRKPRKGKVFQEPLFYEAPRSVDWREKGYVTPVKNQGQCGSCWAFSATGALEGQMFRKTGRLISLSEQNLVDCSGPQGNEGCNGGLMDYAFQYVQDNGGLDSEESYPYEATEESCKYNPKYSVANDTGFVDIPKQEKALMKAVATVGPISVAIDAGHESFLFYKEGIYFEPDCSSEDMDHGVLVVGYGFESTESDNNKYWLVKNSWGEEWGMGGYVKMAKDRRNHCGIASAASYPTV
B2: Cruzipain (Trypanosoma cruzi), P25779 (protein)
chain: MSGWARALLLAAVLVVMACLVPAATASLHAEETLTSQFAEFKQKHGRVYESAAEEAFRLSVFRENLFLARLHAAANPHATFGVTPFSDLTREEFRSRYHNGAAHFAAAQERARVPVKVEVVGAPAAVDWRARGAVTAVKDQGQCGSCWAFSAIGNVECQWFLAGHPLTNLSEQMLVSCDKTDSGCSGGLMNNAFEWIVQENNGAVYTEDSYPYASGEGISPPCTTSGHTVGATITGHVELPQDEAQIAAWLAVNGPVAVAVDASSWMTYTGGVMTSCVSEQLDHGVLLVGYNDSAAVPYWIIKNSWTTQWGEEGYIRIAKGSNQCLVKEEASSAVVGGPGPTPEPTTTTTTSAPGPSPSYFVQMSCTDAACIVGCENVTLPTGQCLLTTSGVSAIVTCGAETLTEEVFLTSTHCSGPSVRSSVPLNKCNRLLRGSVEFFCGSSSSGRLADVDRQRRHQPYHSRHRRL

Experiments:
[1] = substrate: N=C(N)NCCC[C@H](NC(=O)[C@H](Cc1ccncc1)NC(=O)OCc1ccccc1)C(=O)Nc1ccc2ccc(=O)oc2c1; experiment: (§1) Inhibition of human cathepsin L assessed as ratio of Kcat/Km using Z-Phe-Arg-MCA as substrate by spectrofluorometric method
[2] = substrate: N=C(N)NCCC[C@H](NC(=O)OCc1ccccc1)C(=O)N[C@@H](CCCNC(=N)N)C(=O)Nc1ccc2ccc(=O)oc2c1; experiment: as §1
[3] = substrate: N=C(N)NCCC[C@H](NC(=O)[C@H](Cc1ccc(NC(=N)N)cc1)NC(=O)OCc1ccccc1)C(=O)Nc1ccc2ccc(=O)oc2c1; experiment: as §1
[4] = substrate: N=C(N)NCCC[C@H](NC(=O)[C@H](Cc1ccccc1)NC(=O)OCc1ccccc1)C(=O)Nc1ccc2ccc(=O)oc2c1; experiment: as §1
[5] = compound: N=C(N)NCCC[C@H](NC(=O)[C@H](Cc1ccncc1)NC(=O)OCc1ccccc1)C(=O)Nc1ccc2ccc(=O)oc2c1; experiment: (§2) Inhibition of Trypanosoma cruzi cruzipain assessed as ratio of Kcat/Km using Z-Phe-Arg-MCA as substrate by spectrofluorometric method
[6] = compound: N=C(N)NCCC[C@H](NC(=O)OCc1ccccc1)C(=O)N[C@@H](CCCNC(=N)N)C(=O)Nc1ccc2ccc(=O)oc2c1; experiment: as §2
[7] = compound: N=C(N)NCCC[C@H](NC(=O)[C@H](Cc1ccc(NC(=N)N)cc1)NC(=O)OCc1ccccc1)C(=O)Nc1ccc2ccc(=O)oc2c1; experiment: as §2
[8] = compound: N=C(N)NCCC[C@H](NC(=O)[C@H](Cc1ccccc1)NC(=O)OCc1ccccc1)C(=O)Nc1ccc2ccc(=O)oc2c1; experiment: as §2

Row | Protein | kcat/Km [1] | kcat/Km [2] | kcat/Km [3] | kcat/Km [4] | kcat/Km [5] | kcat/Km [6] | kcat/Km [7] | kcat/Km [8]
1 | B1 | 818000 M⁻¹ s⁻¹ | 37000 M⁻¹ s⁻¹ | 438000 M⁻¹ s⁻¹ | 9.46e+06 M⁻¹ s⁻¹ |  |  |  | 
2 | B2 |  |  |  |  | 6.95e+06 M⁻¹ s⁻¹ | 395000 M⁻¹ s⁻¹ | 1.1e+06 M⁻¹ s⁻¹ | 9.67e+06 M⁻¹ s⁻¹
